Test results taken from US10781456B2, “Carbon-neutral and carbon-positive photorespiration bypass routes supporting higher photosynthetic rate and yield” (Max-Planck-Gesellschaft zur Förderung der Wissenschaften …, priority 2015, dated 2020).
Like-named read-outs stand apart in the source and are kept apart here.

Tests used:
[1] = molecular target: D-fructose 6-phosphate aldolase encoded by E. coli gene fsaA (UniProt P78055); conditions: cited from earlier work
[2] = molecular target: D-fructose 6-phosphate aldolase encoded by E. coli gene fsaB (UniProt P32669); conditions: cited from earlier work
tartronyl-CoA = experiment: malonyl-CoA reductase spectrophotometric assay, NADPH oxidation at 365 nm, tartronyl-CoA into glycerate (reactions 4# and 5); type: biochemical; conditions: 0.25 mM tartronyl-CoA
Procedure: (§1) The kinetics of the MCRCa enzyme for enzymatically converting the substrate tartonyl-CoA into glycerate (via reactions 4# and 5 both catalyzed by MCRCa) were determined spectrophotometrically at 365 nm following the oxidation of NADPH. Per molecule tartronyl-CoA, two molecules of NADPH are oxidized by MCRCa (a first in reaction 4# and a second in reaction 5) The measurements were carried out at 37° C. in a total reaction volume of 200 μL containing 100 mM MOPS buffer (with 5 mM MgCl2, pH 7.5) with an initial NADPH concentration of 0.4 mM NADPH and 23 μg MCRCa.
(§2) An alternative enzyme for catalyzing the conversion of tartonyl-CoA into glycerate (via reactions 4# and 5) is the MCR from Erythrobacter sp. NAP1 (MCRE). It was tested for its activity with malonyl-CoA and for tartronyl-CoA with the assay described above for MCRCa.

malonyl-CoA = malonyl-CoA reductase activity with physiological substrate malonyl-CoA; type: biochemical
Procedure: as §1
(0.3 mM substrate, Kröger et al. 2011, loc. cit.). With tartronyl-CoA (0.25 mM), the specific activity at 37° C. was 0.6 U mg^−1.
as §2

[3] = substrate: CC(C)(COP(=O)(O)OP(=O)(O)OC[C@H]1O[C@@H](n2cnc3c(N)ncnc32)[C@H](O)[C@@H]1OP(=O)(O)O)[C@@H](O)C(=O)NCCC(=O)NCCSC(=O)CO; experiment: PCCMe_D407I_Y143H activity for conversion of glycolyl-CoA into tartronyl-CoA (reaction 3#), coupled ATP hydrolysis (PK/LDH) assay; type: biochemical, Methylobacterium extorquens; conditions: other: 37° C., pH 7.7, ATP hydrolysis assay, 0.125-3 mM glycolyl-CoA, n=2
[4] = substrate: CC(C)(COP(=O)(O)OP(=O)(O)OC[C@H]1O[C@@H](n2cnc3c(N)ncnc32)[C@H](O)[C@@H]1OP(=O)(O)O)[C@@H](O)C(=O)NCCC(=O)NCCSC(=O)C(O)C(=O)O; experiment: MCRCa activity for conversion of tartronyl-CoA into glycerate (reactions 4# and 5), NADPH oxidation; type: biochemical, Chloroflexus aurantiacus; conditions: pH 7.5, 0.4 mM NADPH
Procedure: For the heterologous expression of the MCRCa protein (amino acid sequence is shown in SEQ ID NO: 8; corresponding nucleic acid sequence encoding the protein is depicted in SEQ ID NO: 7) the previously described pTRC-MCRCa plasmid (Kröger et al., 2011, Analytical biochemistry, 411(1), 100-105) was employed.
Cells were harvested at 10 000×g for 10 min and cell pellets were stored at −80° C. until purification of enzymes. Cell pellets of MCRCa and MCRE overexpressing cells were resuspended in two-fold volume of buffer AStrep (50 mM Tris/HCl, 150 mM NaCl, pH 7.8) containing 0.1 mg mL^−1 DNAse I. The cell suspension was passed through a French pressure cell twice at a pressure of 137 MPa and centrifuged at 100 000×g and 4° C. for 1 h. The supernatant was filtered through a 0.45 μm syringe filter and loaded at a flow rate of 1 mL min^−1 onto a 1 mL StrepTrap™ HP column (GE healthcare) which had previously been equilibrated with 5 column volumes of buffer AStrep. The column was washed with 20 column volumes of buffer AStrep and the protein was eluted with buffer AStrep containing 3 mM desthiobiotin. The enzyme was stored in buffer AStrep containing 20% glycerol.
as §1

[5] = as a substrate, read-out: KM for dihydroxyacetone phosphate
[6] = as a substrate, read-out: KM for D-fructose 6-phosphate
[7] = bound stated for both fsaA and fsaB enzymes, read-out: KM (condensation of glycolaldehyde as donor with D-glyceraldehyde 3-phosphate as acceptor)
[8] = other: 37° C., n=3, nonlinear regression
[9] = other: FIG. 8D and Table 5, 37° C., n=3

O=P(O)(O)OC[C@H]1OC(O)[C@@H](O)[C@@H]1O (stereo partly drawn) [D-arabinose 5-phosphate]
Km ([1]; read-out: KM for D-arabinose 5-phosphate): ~500 µM

O=C(CO)COP(=O)(O)O [dihydroxyacetone phosphate]
Km [1, 5]: > 25000 µM | Km [2, 5]: > 25000 µM

O=P(O)(O)OC[C@H]1OC(O)(CO)[C@@H](O)[C@@H]1O (stereo partly drawn) [D-fructose 6-phosphate]
Km [1, 6]: > 6000 µM | Km [2, 6]: > 6000 µM

O=C[C@H](O)COP(=O)(O)O [D-glyceraldehyde 3-phosphate]
Km [1, 7]: < 1000 µM | Km [2, 7]: < 1000 µM

B1: MCRE: malonyl-CoA reductase of Erythrobacter sp. NAP1, NCBI accession no. WP_007163680.1, SEQ ID NO: 10 (protein, listed as Erythrobacter sp.)
chain: MSKEGNAAKGRLEGKVALITGAAGNLGNEISRAFAREGAFVVMTGRTEERISAAREQLIADTGVAPERIDTAVLDGGNPDSIRAAMAKLRKEYGRIDILINNAGSAGPKQPLHNVPLSPQEMEACGDTETVRDAMLNILGVTWNMARIVAPMMPVGGAMVNISTIFSHTRYYGRTAYVVPKAALNALSNQLASELGPRGIRVNTVFPGPIESDRIRTVFAAMDEVQSQPKDTTANYFTGRMALTRSVNGKVDGKPLPNPKDIAGTCLFLASEEAAGIAGEEVDVTHGLSANRTSASTYMTRPSMRSLDGAGLNIFIVSGENWDDALVAAHTLIGSGAKVRLGLARNADVAQANARLKAQGIGEELTVTRFNRAEPDAMEDALAAFSGDVDGAITGAIILPVKPSGHFTGSLLAADDDTVTKFMDTELVGAIAVSRSLARYWHGREDLQSPPRCVFMTNPGDPLGNSFASVLSAGITQLIRIWRDEERVQAGNGSTEHAVWSNQIVRHTNTEDENTRFASGHATRVLFREQHIAEIDLKLPANISEETGSRKAMVGFAENITGLHLGKVAFITGGSAGIGGQVARLLALAGAKVMMVARRESELVAARDRIVGELQDIGFAGVERRVKYMADIDVSDFASLDKAVDATLEEFGRIDYLINNAGVAGAEDMVIDMEPEAWRFTLDANLISNYHLMQRVVPLMKEQGSGYVLNVSSYFGGEKFLAVAYPNRADYGLSKAGQRAMVEAFSPFLGPEVQCNAIAPGPVDGDRLSGTGGKPGLFQRRAKLILENKRLNAVYSAVIHAIREGGDAAKILTRLSRNSTSTLSHDAEAPEELRKLALDFASQGDGLCTWDQYLLTDAMAQRLLVRLQLGGFLLGSNEWASLSSSEQTWLKLSPPDDKPFLPAAQVDKVANGVGKGVISQLHLGAMPTEAEVAQATVFFLADRAVSGETFMPSGGLRVERSNTEREMFGSPKQERIDKMKGKTVWIIGEHLSDYVAATIEELVSGCGVAKVVLIAKDKSGEKAVRDQLPNDLSKDALEVLIAGDGLEEAMDEALGHWGKPTTVLSMPGEPLPDHLFEGGNPLSTKDFAHMVEANITRHYRVTRKASLYDGCQVVLVSPDVPYGSDGPGVALANFVKTSLHAFTATVAVENERLVHDVPVNQINLTRRVSSEEPRDADEHAEELRRFTRAVLLVGAPLPDAQDSRYRSKIYRGTSMTV
modifications: [CDS]1..3654 from SEQ ID NO 9
specific activity for tartronyl-CoA, times lower than that of MCRCa (tartronyl-CoA): 6 times | specific activity with tartronyl-CoA (tartronyl-CoA; 37° C.): 0.1 U mg^−1 | specific activity for malonyl-CoA, times lower than MCRCa (malonyl-CoA): 100 times | specific activity with malonyl-CoA (malonyl-CoA; 0.25 mM malonyl-CoA): 0.1 U mg^−1

B2: propionyl-CoA carboxylase from Methylobacterium extorquens (PCCMe) variant PCCMe_D407I_Y143H (pccA SEQ ID NO: 2; pccB_D407I_Y143H SEQ ID NO: 6) (Methylorubrum … (protein)
chain 1: MKDILEKLEERRAQARLGGGEKRLEAQHKRGKLTARERIELLLDHGSFEEFDMFVQHRSTDFGMEKQKIPGDGVVTGWGTVNGRTVFLFSKDFTVFGGSLSEAHAAKIVKVQDMALKMRAPIIGIFDAGGARIQEGVAALGGHGEVFRRNVAASGVIPQISVIMGPCAGGDVYSPAMTDFIFMVRDTSYMFVTGPDVVKTVTNEVVTAEELGGAKVHTSKSSIADGSFENDVEAILQIRRLLDFLPANNIEGVPEIESFDDVNRLDKSLDTLIPDNPNKPYDMGELIRRVVDEGDFFEIQAAYARNIITGFGRVEGRTVGFVANQPLVLAGVLDSDASRKAARFVRFCNAFSIPIVTFVDVPGFLPGTAQEYGGLIKHGAKLLFAYSQATVPLVTIITRKAFGGAYIVMASKHVGADLNYAWPTAQIAVMGAKGAVEIIFRAEIGDADKIAERTKEYEDRFLSPFVAAERGYIDEVIMPHSTRKRIARALGMLRTKEMEQPWKKHDNIPL
chain 2: MFDKILIANRGEIACRIIKTAQKMGIKTVAVYSDADRDAVHVAMADEAVHIGPAPAAQSYLLIEKIIDACKQTGAQAVHPGYGFLSERESFPKALAEAGIVFIGPNPGAIAAMGDKIESKKAAAAAEVSTVPGFLGVIESPEHAVTIADEIGYPVMIKASAGGGGKGMRIAESADEVAEGFARAKSEASSSFGDDRVFVEKFITDPRHIEIQVIGDKHGNVIYLGERECSIQRRNQKVIEEAPSPLLDEETRRKMGEQAVALAKAVNYDSAGTVEFVAGQDKSFYFLEMNTRLQVEHPVTEMITGLDLVELMIRVAAGEKLPLSQDQVKLDGWAVESRVYAEDPTRNFLPSIGRLTTYQPPEEGPLGGAIVRNDTGVEEGGEIAIHYDPMIAKLVTWAPTRLEAIEAQATALDAFAIEGIRHNIPFLATLMAHPRWRDGRLSTGFIKEEFPEGFIAPEPEGPVAHRLAAVAAAIDHKLNIRKRGISGQMRDPSLLTFQRERVVVLSGQRFNVTVDPDGDDLLVTFDDGTTAPVRSAWRPGAPVWSGTVGDQSVAIQVRPLLNGVFLQHAGAAAEARVFTRREAELADLMPVKENAGSGKQLLCPMPGLVKQIMVSEGQEVKNGEPLAIVEAMKMENVLRAERDGTISKIAAKEGDSLAVDAVILEFA
Km [3]: 1.0 ± 0.15 mM (glycolyl-CoA) mM | Vmax [3]: 1.5 ± 0.09 U mg^−1

B3: malonyl-CoA reductase from Chloroflexus aurantiacus (MCRCa), SEQ ID NO: 8 (Chloroflexus aurantiacus) (protein)
chain: MSGTGRLAGKIALITGGAGNIGSELTRRFLAEGATVIISGRNRAKLTALAERMQAEAGVPAKRIDLEVMDGSDPVAVRAGIEAIVARHGQIDILVNNAGSAGAQRRLAEIPLTEAELGPGAEETLHASIANLLGMGWHLMRIAAPHMPVGSAVINVSTIFSRAEYYGRIPYVTPKAALNALSQLAARELGARGIRVNTIFPGPIESDRIRTVFQRMDQLKGRPEGDTAHHFLNTMRLCRANDQGALERRFPSVGDVADAAVFLASAESAALSGETIEVTHGMELPACSETSLLARTDLRTIDASGRTTLICAGDQIEEVMALTGMLRTCGSEVIIGFRSAAALAQFEQAVNESRRLAGADFTPPIALPLDPRDPATIDAVFDWGAGENTGGIHAAVILPATSHEPAPCVIEVDDERVLNFLADEITGTIVIASRLARYWQSQRLTPGARARGPRVIFLSNGADQNGNVYGRIQSAAIGQLIRVWRHEAELDYQRASAAGDHVLPPVWANQIVRFANRSLEGLEFACAWTAQLLHSQRHINEITLNIPANISATTGARSASVGWAESLIGLHLGKVALITGGSAGIGGQIGRLLALSGARVMLAARDRHKLEQMQAMIQSELAEVGYTDVEDRVHIAPGCDVSSEAQLADLVERTLSAFGTVDYLINNAGIAGVEEMVIDMPVEGWRHTLFANLISNYSLMRKLAPLMKKQGSGYILNVSSYFGGEKDAAIPYPNRADYAVSKAGQRAMAEVFARFLGPEIQINAIAPGPVEGDRLRGTGERPGLFARRARLILENKRLNELHAALIAAARTDERSMHELVELLLPNDVAALEQNPAAPTALRELARRFRSEGDPAASSSSALLNRSIAAKLLARLHNGGYVLPADIFANLPNPPDPFFTRAQIDREARKVRDGIMGMLYLQRMPTEFDVAMATVYYLADRNVSGETFHPSGGLRYERTPTGGELFGLPSPERLAELVGSTVYLIGEHLTEHLNLLARAYLERYGARQVVMIVETETGAETMRRLLHDHVEAGRLMTIVAGDQIEAAIDQAITRYGRPGPVVCTPFRPLPTVPLVGRKDSDWSTVLSEAEFAELCEHQLTHHFRVARKIALSDGASLALVTPETTATSTTEQFALANFIKTTLHAFTATIGVESERTAQRILINQVDLTRRARAEEPRDPHERQQELERFIEAVLLVTAPLPPEADTRYAGRIHRGRAITV
Km [4, 8]: 25.7 ± 2.6 µM | Vmax [4, 8]: 635±14 mU/mg | Km [4, 9]: 0.03 ± 0.003 mM (tartronyl-CoA) mM | Vmax [4, 9]: 0.6 ± 0.01 U mg^−1
